Measured values taken from article PMC5976803.

T1: anti-CLDN-5 ECR mAb clone 1B3
T1 chain 1: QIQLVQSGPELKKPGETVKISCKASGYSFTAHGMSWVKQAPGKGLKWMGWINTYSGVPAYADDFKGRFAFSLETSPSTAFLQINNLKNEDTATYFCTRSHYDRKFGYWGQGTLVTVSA
T1 chain 2: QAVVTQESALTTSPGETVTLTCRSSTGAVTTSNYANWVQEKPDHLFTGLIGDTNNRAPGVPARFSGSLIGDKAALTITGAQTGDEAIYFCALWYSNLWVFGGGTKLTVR


Legend:
Experiment in all cases: proteoliposome ELISA
Conditions in all cases: chain shown with the change;; parent: est. 1.0; read off a plot
[1] = biological target: anti-CLDN-5 ECR mAb clone 2B1
[2] = biological target: anti-CLDN-5 ECR mAb clone 2B12
[3] = biological target: anti-CLDN-5 ECR mAb clone 1D1
[4] = biological target: T1, anti-CLDN-5 ECR mAb clone 1B3

anti-CLDN-5 ECR mAb clone 1D1, sequence (chain, as listed by the source, chain 1 of 2): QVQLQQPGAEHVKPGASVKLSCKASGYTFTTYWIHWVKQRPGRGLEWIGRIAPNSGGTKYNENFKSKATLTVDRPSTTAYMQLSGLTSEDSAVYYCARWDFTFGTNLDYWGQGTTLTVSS
anti-CLDN-5 ECR mAb clone 1D1, sequence (chain, as listed by the source, chain 2 of 2): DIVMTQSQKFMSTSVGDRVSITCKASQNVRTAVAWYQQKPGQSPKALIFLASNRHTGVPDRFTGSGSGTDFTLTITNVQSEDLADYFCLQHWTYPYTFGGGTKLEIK
anti-CLDN-5 ECR mAb clone 2B12, sequence (chain, as listed by the source, chain 1 of 2): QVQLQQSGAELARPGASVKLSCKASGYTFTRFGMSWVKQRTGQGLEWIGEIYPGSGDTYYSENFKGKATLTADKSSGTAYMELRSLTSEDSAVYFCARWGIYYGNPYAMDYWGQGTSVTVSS
anti-CLDN-5 ECR mAb clone 2B12, sequence (chain, as listed by the source, chain 2 of 2): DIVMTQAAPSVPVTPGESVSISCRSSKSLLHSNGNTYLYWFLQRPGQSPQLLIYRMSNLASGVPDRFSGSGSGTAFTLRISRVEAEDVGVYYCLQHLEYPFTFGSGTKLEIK
anti-CLDN-5 ECR mAb clone 2B1, sequence (chain, as listed by the source, chain 1 of 2): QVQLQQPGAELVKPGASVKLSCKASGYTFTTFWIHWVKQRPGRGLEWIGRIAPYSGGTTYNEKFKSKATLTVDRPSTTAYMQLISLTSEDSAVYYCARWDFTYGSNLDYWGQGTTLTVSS
anti-CLDN-5 ECR mAb clone 2B1, sequence (chain, as listed by the source, chain 2 of 2): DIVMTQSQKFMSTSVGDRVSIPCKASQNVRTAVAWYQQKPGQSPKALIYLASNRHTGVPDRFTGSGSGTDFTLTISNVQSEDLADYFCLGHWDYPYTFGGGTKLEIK

ratio to parent [1]	ratio to parent [2]	ratio to parent [3]	ratio to parent [4]	Binder
0.55	0.94	0.88	1.2	AGIA-tagged human CLDN-5, cell-free synthesized proteoliposome, O00501 Q156A (protein) MGSAALEILGLVLCLVGWGGLILACGLPMWQVTAFLDHNIVTAQTTWKGLWMSCVVQSTGHMQCKVYDSVLALSTEVQAARALTVSAVLLAFVALFVTLAGAQCTTCVAPGPAKARVALTGGVLYLFCGLLALVPLCWFANIVVREFYDPSVPVSAKYELGAALYIGWAATALLMVGGCLLCCGAWVCTGRPDLSFPVKYSAPRRPTATGDYDKKNYV
1.2	0.39	1.6	0.25	AGIA-tagged human CLDN-5, cell-free synthesized proteoliposome, O00501 V152A (protein) MGSAALEILGLVLCLVGWGGLILACGLPMWQVTAFLDHNIVTAQTTWKGLWMSCVVQSTGHMQCKVYDSVLALSTEVQAARALTVSAVLLAFVALFVTLAGAQCTTCVAPGPAKARVALTGGVLYLFCGLLALVPLCWFANIVVREFYDPSAPVSQKYELGAALYIGWAATALLMVGGCLLCCGAWVCTGRPDLSFPVKYSAPRRPTATGDYDKKNYV
0.14	0.03	0.1	0.75	AGIA-tagged human CLDN-5, cell-free synthesized proteoliposome, O00501 S151A (protein) MGSAALEILGLVLCLVGWGGLILACGLPMWQVTAFLDHNIVTAQTTWKGLWMSCVVQSTGHMQCKVYDSVLALSTEVQAARALTVSAVLLAFVALFVTLAGAQCTTCVAPGPAKARVALTGGVLYLFCGLLALVPLCWFANIVVREFYDPAVPVSQKYELGAALYIGWAATALLMVGGCLLCCGAWVCTGRPDLSFPVKYSAPRRPTATGDYDKKNYV
1.1	0.87	1.3	1.2	AGIA-tagged human CLDN-5, cell-free synthesized proteoliposome, O00501 V154A (protein) MGSAALEILGLVLCLVGWGGLILACGLPMWQVTAFLDHNIVTAQTTWKGLWMSCVVQSTGHMQCKVYDSVLALSTEVQAARALTVSAVLLAFVALFVTLAGAQCTTCVAPGPAKARVALTGGVLYLFCGLLALVPLCWFANIVVREFYDPSVPASQKYELGAALYIGWAATALLMVGGCLLCCGAWVCTGRPDLSFPVKYSAPRRPTATGDYDKKNYV
0.11	0.03	0.06	0.17	AGIA-tagged human CLDN-5, cell-free synthesized proteoliposome, O00501 D149A (protein) MGSAALEILGLVLCLVGWGGLILACGLPMWQVTAFLDHNIVTAQTTWKGLWMSCVVQSTGHMQCKVYDSVLALSTEVQAARALTVSAVLLAFVALFVTLAGAQCTTCVAPGPAKARVALTGGVLYLFCGLLALVPLCWFANIVVREFYAPSVPVSQKYELGAALYIGWAATALLMVGGCLLCCGAWVCTGRPDLSFPVKYSAPRRPTATGDYDKKNYV
0.25	0.36	0.26	0.49	AGIA-tagged human CLDN-5, cell-free synthesized proteoliposome, O00501 E146A (protein) MGSAALEILGLVLCLVGWGGLILACGLPMWQVTAFLDHNIVTAQTTWKGLWMSCVVQSTGHMQCKVYDSVLALSTEVQAARALTVSAVLLAFVALFVTLAGAQCTTCVAPGPAKARVALTGGVLYLFCGLLALVPLCWFANIVVRAFYDPSVPVSQKYELGAALYIGWAATALLMVGGCLLCCGAWVCTGRPDLSFPVKYSAPRRPTATGDYDKKNYV
0.27	0.13	0.26	1.8	AGIA-tagged human CLDN-5, cell-free synthesized proteoliposome, O00501 P150A (protein) MGSAALEILGLVLCLVGWGGLILACGLPMWQVTAFLDHNIVTAQTTWKGLWMSCVVQSTGHMQCKVYDSVLALSTEVQAARALTVSAVLLAFVALFVTLAGAQCTTCVAPGPAKARVALTGGVLYLFCGLLALVPLCWFANIVVREFYDASVPVSQKYELGAALYIGWAATALLMVGGCLLCCGAWVCTGRPDLSFPVKYSAPRRPTATGDYDKKNYV
1.1	1.3	1.5	2.4	AGIA-tagged human CLDN-5, cell-free synthesized proteoliposome, O00501 F147A (protein) MGSAALEILGLVLCLVGWGGLILACGLPMWQVTAFLDHNIVTAQTTWKGLWMSCVVQSTGHMQCKVYDSVLALSTEVQAARALTVSAVLLAFVALFVTLAGAQCTTCVAPGPAKARVALTGGVLYLFCGLLALVPLCWFANIVVREAYDPSVPVSQKYELGAALYIGWAATALLMVGGCLLCCGAWVCTGRPDLSFPVKYSAPRRPTATGDYDKKNYV
0.14	0.08	0.13	0.19	AGIA-tagged human CLDN-5, cell-free synthesized proteoliposome, O00501 P153A (protein) MGSAALEILGLVLCLVGWGGLILACGLPMWQVTAFLDHNIVTAQTTWKGLWMSCVVQSTGHMQCKVYDSVLALSTEVQAARALTVSAVLLAFVALFVTLAGAQCTTCVAPGPAKARVALTGGVLYLFCGLLALVPLCWFANIVVREFYDPSVAVSQKYELGAALYIGWAATALLMVGGCLLCCGAWVCTGRPDLSFPVKYSAPRRPTATGDYDKKNYV
1.1	0.75	1.3	0.17	AGIA-tagged human CLDN-5, cell-free synthesized proteoliposome, O00501 Y148A (protein) MGSAALEILGLVLCLVGWGGLILACGLPMWQVTAFLDHNIVTAQTTWKGLWMSCVVQSTGHMQCKVYDSVLALSTEVQAARALTVSAVLLAFVALFVTLAGAQCTTCVAPGPAKARVALTGGVLYLFCGLLALVPLCWFANIVVREFADPSVPVSQKYELGAALYIGWAATALLMVGGCLLCCGAWVCTGRPDLSFPVKYSAPRRPTATGDYDKKNYV
0.84	0.99	0.86	1.3	AGIA-tagged human CLDN-5, cell-free synthesized proteoliposome, O00501 S155A (protein) MGSAALEILGLVLCLVGWGGLILACGLPMWQVTAFLDHNIVTAQTTWKGLWMSCVVQSTGHMQCKVYDSVLALSTEVQAARALTVSAVLLAFVALFVTLAGAQCTTCVAPGPAKARVALTGGVLYLFCGLLALVPLCWFANIVVREFYDPSVPVAQKYELGAALYIGWAATALLMVGGCLLCCGAWVCTGRPDLSFPVKYSAPRRPTATGDYDKKNYV
